Results published in patent publication US20220267458A1 (Innovent, published 2022).
Positions count from the first letter of the chain named.

B1: hcIgG-07 (antibody, V domains shown)
VH: QVQLQESGGGLVQAGGSLKLSCTVSGFAFGSSHMSWVRRAPGKGLEWVSTIHSGGGFGDYANSVQGRFTISRDVAKNTLYLQMNSLKPEDTAIYYCALATDWRKPPGQGTQVTVSS
notes: also called heavy-chain antibody of Nb-07
B2: hcIgG-10 (antibody, V domains shown)
VH: B1 VH with A14P, K19R, T23A, V24A
notes: also called heavy-chain antibody of Nb-10
B3: hcIgG-02 (antibody, V domains shown)
VH: QVQLQESGGGSVQAGGSLRLSCAASRDTYTRYFMGWFRQTPGKEGEGVAVLLPGGDYTFYADSVKGRFTITQDSAKNTVYLQMNSLKPEDTAMYYCAADVTVGSRWSQASNYNYWGQGTQVTVSS
notes: also called heavy-chain antibody of Nb-02
B4: hcIgG-20 (antibody, V domains shown)
VH: QVQLQESGGGSVQAGGSLRLSCASSGYSRTSRWMAWFRQAPGKEREGVAAIYTGGSSTLYANSMADRVTISQDNAKNTVYLRMNNLKPEDTAMYYCAADKLAGDFWLVDRWRAWGQGTQVTVSS
notes: also called heavy-chain antibody of Nb-20
B5: HzhcIgG-20 (antibody, V domains shown)
VH: QVQLQESGGGLVQPGGSLRLSCAASGYSRTSRWMAWFRQAPGKGLEGVAAIYTGGSSTLYADSVKGRFTISRDNAKNSVYLQMNSLRAEDTAVYYCAADKLAGDFWLVDRWRAWGQGTLVTVSS
notes: Humanized heavy-chain antibody without light chain; also called humanized hcIgG-20; humanized HcIgG
B6: hcIgG-03 (antibody, V domains shown)
VH: QVQLQESGGGSVQAGGSLRLSCAASGYTYSGYCMGWFRQAPGKEHEGVASIVSGLGRPYYADSVKGRFTISQDNAKNTVYLQMNSLKPEDTAMYYCAAEWATKLCSEIPATEWDYWGQGTQVTVSS
notes: also called heavy-chain antibody of Nb-03
B7: hcIgG-16 (antibody, V domains shown)
VH: QVQLQESGGGSVQAGGSLRLSCAASGYTYNKYSWGWFRQAPGKEREGVAGIDSDGSTSYADSVKGRFTISKDNTKNTLYLQMNSLKPEDTAMYYCAASDWVSAIQALGVLAVRPYEYWGQGTQVTVSS
notes: also called heavy-chain antibody of Nb-16
B8: hcIgG-09 (antibody, V domains shown)
VH: QVQLQESGGGLVQPGGSLRLSCGASGFTFSSTAMWWFRQAPGKGLEWVSSITSDVSGTYYADSVQGRFTISRDNGKNTVYLQMNSLRSEDTALYYCATSCGFSGGTWSCKYRGQGTQVTVSS
notes: also called heavy-chain antibody of Nb-09

Columns and labels:
[1] = target: T1, human GITR overexpressed on CHO cells (CHO-GITR) (human, UniProt Q9Y5U5 26-241); assay: flow cytometry on CHO-GITR cells, PE anti-human Fc detection, MFI; direct binding titration, the table row is labelled IC50, nM is taken from the concentration axis
T1 construct: whole, on cells; also called cell surface GITR protein; antigen expressed on the cell surface
T1 sequence (looked up): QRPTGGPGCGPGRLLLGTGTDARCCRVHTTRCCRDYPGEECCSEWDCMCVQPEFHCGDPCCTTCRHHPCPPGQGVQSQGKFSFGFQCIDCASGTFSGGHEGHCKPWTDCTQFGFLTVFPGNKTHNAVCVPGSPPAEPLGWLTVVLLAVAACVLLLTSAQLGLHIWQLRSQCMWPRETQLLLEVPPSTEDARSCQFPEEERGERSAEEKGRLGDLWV
Procedure: (1) Cell preparation: The pCHO1.0 vector (Invitrogen) carrying human GITR cDNA cloned to a multiple cloning site (MCS) was transfected into Chinese hamster ovary cancer cells (CHO) (Invitrogen) to produce human GITR-overexpressing CHO cells (CHO-GITR), the CHO cells (CHO-GITR) overexpressing human GITR on the surface thereof were counted, and diluted to 1×10⁶ cells/mL, and added to a U-bottom 96-well plate with 100 μL/well.
(1) Detection: The cell suspension was centrifuged at 400 g for 5 min to remove the cell medium. Serial dilutions of the sample were added to a U-shaped plate, and then the cells were resuspended and added to the plate with 100 μL/well. The plate was put onto the ice to stand for 30 min The cell suspension was centrifuged at 400 g for 5 min, and the supernatant was discarded. The cells were washed once with PBS, and then centrifuged at 400 g for 5 min to remove PBS. 100 μL of the solution of PE-conjugated anti-human Fc antibody (Jackson Immuno Research) diluted at a ratio of 1:200 was added to each well, and the cells were incubated in dark on the ice for 30 min The cell suspension was centrifuged at 400 g for 5 min, and the supernatant was discarded. The cells were washed once with PBS. The cells were resuspended with 100 μL of PBS.

human GITR-His [2] = target: T2, human GITR-His (human, UniProt Q9Y5U5 26-161); assay: ForteBio BLI, antibody on AHQ tip, human GITR-His 100 nM in solution, 1:1 model
T2 construct: Bought from Acro biosystems; also called GITR-His (Acro biosystems); antigen GITR-His
T2 sequence: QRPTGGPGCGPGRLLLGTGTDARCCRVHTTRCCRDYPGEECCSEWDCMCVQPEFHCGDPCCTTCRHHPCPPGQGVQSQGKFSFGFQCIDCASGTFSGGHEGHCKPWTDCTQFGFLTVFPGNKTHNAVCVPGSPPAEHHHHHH
Procedure: (§1) (2) Experimental procedure: 100 μl of SD buffer and antibodies (hcIgG-02, hcIgG-03, hcIgG-04, hcIgG-07, hcIgG-09, hcIgG-10, hcIgG-16 and hcIgG-20, control antibody), GITR-His (Acro biosystems) were added to a 96-well half-volume black polystyrene microplate. The plate was arranged according to the positions of the samples, the position of the sensor was selected, and the operation procedures were set as: Baseline, Loading ˜1 nm, Baseline, Association and Dissociation, each running for a time depending on the binding and dissociation rates of the sample, at a rotation speed of 400 rpm and a temperature of 30° C.
(3) A 1:1 binding model was adopted for kinetic analysis.

[3] = target: GITR protein overexpressed on Hela cells (Hela-GITR-NF-κB-Luc-Rep); assay: cell-based or functional assay
[4] = target: T1, human GITR overexpressed on CHO cells …; assay: flow cytometry on CHO-GITR cells, PE anti-human Fc detection, MFI
human GITR-His [5] = target: T2, human GITR-His; assay: ForteBio BLI, antibody on AHQ tip, human GITR-His 100 nM in solution
Procedure: as §1
In this experiment, binding kinetics and affinity for the antibody hcIgG-20 before humanization and the antibody HzhcIgG-20 after humanization were determined using the ForteBio method in the same way as in Example 3. ForteBio results are listed in Table 4. hcIgG-20 and HzhcIgG-20 retain the binding ability to GITRs, and the affinity is higher than the control antibody TRX518.

Binder | IC50 [1] | Kd (human GITR-His [2]) | koff (human GITR-His [2]) | kon (human GITR-His [2]) | EC50 for the activation (NF-κB luciferase reporter) [3] | EC50 (read off the curve) [4] | Kd (human GITR-His [5]) | koff (human GITR-His [5]) | kon (human GITR-His [5])
B1 | 1.44 nM | 4.08 nM | 0.00099 s⁻¹ | 243000 M⁻¹ s⁻¹ |  |  |  |  | 
B2 | 1.47 nM | 3.22 nM | 0.000742 s⁻¹ | 231000 M⁻¹ s⁻¹ |  |  |  |  | 
B3 | 41.2 nM | 6.33 nM | 0.00214 s⁻¹ | 338000 M⁻¹ s⁻¹ |  |  |  |  | 
B4 | 0.511 nM | 1.85 nM | 0.000646 s⁻¹ | 349000 M⁻¹ s⁻¹ | 0.689 nM | ~2 nM | 4.35 nM | 0.000917 s⁻¹ | 211000 M⁻¹ s⁻¹
B5 |  |  |  |  | 0.663 nM | ~2 nM | 4 nM | 0.00128 s⁻¹ | 321000 M⁻¹ s⁻¹
B6 | 102 nM | 5.3 nM | 0.00172 s⁻¹ | 324000 M⁻¹ s⁻¹ |  |  |  |  | 
B7 | 34.1 nM | 9.81 nM | 0.00114 s⁻¹ | 117000 M⁻¹ s⁻¹ |  |  |  |  | 
B8 | 4.89 nM | 1.89 nM | 0.000487 s⁻¹ | 257000 M⁻¹ s⁻¹ |  |  |  |  | 
